Broadly, the stoichiometry N is a count of units in the complex or per binding partner. Usually Kd stands for the concentration at which binding is half-saturated.

Experimental findings from article PMC2884007 are described below.

The target in experiment [1] is Mimivirus cyclophilin (mimicyp), full length wild type (Mimivirus) (UniProt Q5UP71). The experiment is described as follows: crystal structure.
Experiment [2] shares this target. In words: SEC + other: NMR.

In the case of “Mimivirus cyclophilin (mimicyp), full length wild type (from UniProt Q5UP71 1-234) (natural protein)”, the stoichiometry N in experiment [1] came out at 3. The Kd in experiment [2] is 50 to 500 µM.
